The source of these data is patent US20130251731A1, “Tau Acetylation in the Pathogenesis of Alzheimers Disease and Other Related Tauopathies” (THE TRUSTEES OF THE UNIVERSITY OF PENNSYLVANIA, priority 2012, published 2013).

Entries after “also recorded” stand apart in the source; their conditions may differ.

Series [1] relates to tau-K18 acetyltransferase activity (auto-acetylation). In words: Tau auto-acetylation filter binding assay, kinetic analysis. It is filed as biochemical. To be noted: tau-K18 proteins containing sequential deletions. The method, then:
(§1) Reactions were assembled in 50 μl of reaction buffer containing 50 mM Tris pH 8.0, 100 μM EDTA, and 10% glycerol. Unless specifically noted, reactions contained 25 μM of either WT tau-K18 or tau-K18-2CA mutant. The reactions were initiated by the addition of [^3H]-acetyl-CoA (2.35 Ci mmol^−1, Perkin Elmer) at concentrations ranging from 2.5 μM to 1 mM, incubated at 37° C., and allowed to proceed for 1 hr (unless otherwise noted). Reactions were stopped by the addition of 10 μl of 3 mM CoA, and 25 μl of the reaction was then spotted to a P81 filter paper (Whatman), washed in 10 mM HEPES pH 7.5 three times, and dried using acetone. Incorporated [^3H]-acetyl-CoA was then measured using the Perkin Elmer Tri-Carb 2800TR Liquid Scintillation Analyzer, and the molar amount of acetyl groups incorporated into tau were calculated from a standard curve of the radiolabeled acetyl-CoA.

Series [2] concerns the target T1, tau-K18 acetyltransferase activity (auto-acetylation) (Homo sapiens, UniProt P10636).
T1 construct: made in house
The description is as above. The series is classed as biochemical. The method, then:
as §1

Series [3] is described as follows: Heparin-induced tau fibrillization assay quantified by Thioflavin-T binding. To be noted: 10 μM tau proteins, 10 μM heparin, 4-h incubation. The series is classed as biochemical. The method, then:
(§2) Recombinant full-length T40, 4R-tau MT-binding domain K18, or tau fibrils were acetylated by incubation with [^14C]-labeled acetyl-CoA in the presence or absence of CBP. FIG. 1A illustrates that the reaction products were analyzed by SDS-PAGE and Coomassie blue staining followed by overnight radiographic exposure using STORM phosphor-imager software. FIG. 1B depicts the results of an experiment where T40 or K18 proteins were incubated with acetyl-CoA and/or recombinant CBP and reaction products were subjected to immunoblot analysis using a polyclonal anti-tau-specific antibody for MT repeat domain (E10) and an anti-acetyl-lysine antibody. FIG. 1C is a graph depicting the MT assembly activities of K18 proteins as evaluated in light-scattering assays. Tubulin monomers (30 μM) were mixed with 40 μM tau proteins in MT assembly buffer supplemented with 2 mM guanosine triphosphate. MT assembly was determined by monitoring absorbance every minute at 350 nm using a SpectraMax plate reader. […] FIG. 1D is a graph illustrating the results of experiments where Tau proteins (10 μM) were evaluated in fibrillization reactions using 10 μM heparin to induce assembly. […] Samples were analysed by SDS-PAGE and Coomassie staining to monitor fibril formation. FIG. 1F illustrates the results of experiments where four-hour time points from fibrillization reactions were analysed by negative-staining EM. […]
Tau K18 protein was either mock acetylated or acetylated in vitro using acetyl-CoA substrate as indicated elsewhere herein. […] Protein concentrations were determined using the bicinchoninic acid protein assay (Pierce) with bovine serum albumin as the standard. Acetylated K18 and mock-treated K18 were assessed by a light-scattering assay as described elsewhere herein. […] The extent of fibrillization was assessed at different time points by ThT fluorescence assay, sedimentation analysis and negative staining EM as described elsewhere herein. For ThT fluorescence assay, ThT diluted in 100 mM glycine buffer (pH 8.5) was added and fluorometric readings were taken at 450 nm (excitation) and 510 nm (emission). […]

For series [4], the system named is tubulin. Kind of series: MT assembly light-scattering assay. It is filed as biochemical. To be noted: 30 μM tubulin, 40 μM tau proteins, 2 mM GTP. The method, then: as §2
Series [5] concerns 2N4R-tau and tau-K18 auto-acetylation activity. In words: Tau acetyltransferase inhibition studies (pre-incubation with cysteine blocking agents, tubulin or microtubules). Conditions: pre-incubated with 0.5 mM NEM or 4 mM IA. It is filed as biochemical. The method, then:
FIG. 14, comprising FIGS. 14a-14c, is a series of images depicting the results of experiments showing that cysteine blocking agents inhibit tau-mediated acetyltransferase activity. […] FIG. 14c is an image showing bovine brain derived microtubule associated protein (MAP-rich) fractions containing all CNS tau isoforms that were evaluated in acetyltransferase assays in the presence of increased tubulin concentrations followed by immunoblotting with Ac-K280 and total tau (T46) antibodies.
Acetyltransferase assays using purified tau proteins were performed as previously described and subjected to autoradiography or immunoblotting using the following anti-tau antibodies: anti-tau polyclonal (Dako, A0024, 1:10,000), anti-acetyl lysine (Cell Signaling, #9441, 1:1000), anti-tau monoclonal (T46, 1:1000), anti-mouse tau (T49, 1:1000), anti-acetylated tau (Ac-K280, 1:1000), anti-acetylated tau (Ac-K369, 1:1000). For tau acetyltransferase inhibition studies, tau proteins were pre-incubated with 0.5 mM N-ethyl-maleimide (NEM), 4 mM iodoacetamide (IA), or increasing concentrations of either tubulin (5-10 μM) or pre-formed microtubules (5 μM). […] Reaction products were readily distinguished between 2N4R-tau (Mr ˜65 kD) and tau-K18 (Mr ˜15 kD) by immunoblotting using acetylated tau (Ac-K280) and total tau (E10) antibodies. […]

Series [6] deals with K18-PL acetylation in QBI-293 cells. Kind of series: Cell-based K18-PL acetylation assay in QBI-293 cells. To be noted: C646 to block CBP/p300, 3MA-induced acetylation, overnight.
The test system of series [7] is HDAC6. In words: HDAC6 siRNA in HEK-T40 cells, immunoblotting. The series is classed as cell-based, human. The method, then: FIG. 7, comprising FIG. 7A through FIG. 7D, depicts the results of experiments which illustrate the characterization of the ac-K280 site-specific acetylated tau antibody. FIG. 7A illustrates the results of an experiment where recombinant WT-K18 or ΔK280-K18 proteins (1 μg) were incubated in the presence or absence of acetyl-CoA or CBP as indicated and K280 acetylation was determined by immunoblotting using anti-ac-K280 and a polyclonal antibody raised to exon 10 of tau protein (E10). FIG. 7B illustrates the results of an experiment where QBI-293 cells were co-transfected with WT-T40 tau or ΔK280-T40 mutant tau expression plasmids along with CBP to promote tau acetylation. 1, 2, and 5 μg total cell lysates were analyzed by western blotting using anti-ac-K280, total tau (T46), and GAPDH antibodies. […] Scale bar represents 50 μm. FIG. 7D illustrates the results of an experiment where control or HDAC6 siRNA expressing HEK-T40 cells were analyzed by immunoblotting using ac-K280, total tau, HDAC6, and GAPDH antibodies.
The longest human tau isoform (designated Tau-T40) was cloned into pCDNA5/TO vector (Invitrogen) and site-directed mutagenesis (Quikchange kit; Stratagene) was used to create K→Q or K→R mutations at residues K163, K280, K281, K369 as indicated. Indicated plasmids were transfected into either QBI-293 cells or stably expressing HEK-T40 cells using Fugene (Roche). […]
(In western blotting, separated proteins are transferred to a membrane and probed.)

T1 sequence (P10636 561-689 limits assumed): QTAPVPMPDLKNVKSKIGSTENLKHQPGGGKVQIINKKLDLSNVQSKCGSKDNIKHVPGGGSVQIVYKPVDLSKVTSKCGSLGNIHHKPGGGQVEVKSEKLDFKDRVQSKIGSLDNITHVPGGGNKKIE

For “tau-K18: recombinant tau fragment encompassing all four MT-binding repeats”, the Km (as a rule, the concentration of substrate that gives half-maximal velocity) in series [1] was determined as 147 µM; in series [2] (auto-acetylation, this study, read-out: Km AcCoA [auto]) it was 147 µM. The “Kcat [auto]” value in series [2] (auto-acetylation, this study) is 8.3e-05 s⁻¹. Further, the “turnover rate Kcat” value in series [2] (saturation plot against acetyl-CoA concentration) stood at 8.3e-05 s⁻¹. The “fibrillization (ThT)” value in series [3] is given as “did not fibrillize during the 4-h incubation period”. Also, the “MT assembly (absorbance at 350 nm)” value in series [4] was “promoted tubulin assembly into MTs”.
Take `CCN1C(=O)C=CC1=O` [N-ethyl-maleimide]: the “2N4R-tau or tau-K18 auto-acetylation activity after pretreatment” value in series [5] was “abrogation of 2N4R-tau or tau-K18 auto-acetylation activity; also recorded: minimal acetyltransferase activity”.
With `NC(=O)CI` [iodoacetamide], in series [5], the “2N4R-tau or tau-K18 auto-acetylation activity after pretreatment” value was “abrogation of 2N4R-tau or tau-K18 auto-acetylation activity; also recorded: minimal acetyltransferase activity”.
Consider `CC1=NN(c2ccc(C(=O)O)cc2)C(=O)/C1=C\c1ccc(-c2cc(C)c(C)cc2[N+](=O)[O-])o1` [C646], for which the K18-PL acetylation levels result in series [6] is on record as “no effect on K18-PL acetylation levels”.
Turning to “HDAC6 small interfering RNA: HDAC6 siRNA (Invitrogen) 5′-AAAGUUGGAACUCUCACGGUGCAGC-3′ (SEQ ID NO: 1) (listed as RNA, chemistry not given here)”, in series [7], the “levels of ac-K280” value is “increased levels of ac-K280”.
